# Paper PMC6182161 (Nucleic Acids Research, 2018)
# Substitutions are numbered along the chain they refer to.
# B1: GST-Che-1 (natural protein, UniProt Q9NY61 1-560, looked up)
# chain: MAGPQPLALQLEQLLNPRPSEADPEADPEEATAARVIDRFDEGEDGEGDFLVVGSIRKLASASLLDTDKRYCGKTTSRKAWNEDHWEQTLPGSSDEEISDEEGSGDEDSEGLGLEEYDEDDLGAAEEQECGDHRESKKSRSHSAKTPGFSVQSISDFEKFTKGMDDLGSSEEEEDEESGMEEGDDAEDSQGESEEDRAGDRNSEDDGVVMTFSSVKVSEEVEKGRAVKNQIALWDQLLEGRIKLQKALLTTNQLPQPDVFPLFKDKGGPEFSSALKNSHKALKALLRSLVGLQEELLFQYPDTRYLVDGTKPNAGSEEISSEDDELVEEKKQQRRRVPAKRKLEMEDYPSFMAKRFADFTVYRNRTLQKWHDKTKLASGKLGKGFGAFERSILTQIDHILMDKERLLRRTQTKRSVYRVLGKPEPAAQPVPESLPGEPEILPQAPANAHLKDLDEEIFDDDDFYHQLLRELIERKTSSLDPNDQVAMGRQWLAIQKLRSKIHKKVDRKASKGRKLRFHVLSKLLSFMAPIDHTTMNDDARTELYRSLFGQLHPPDEGHGD
# B2: GST-Che-1-N (domain or fragment, UniProt Q9NY61 1-124, looked up)
# chain: MAGPQPLALQLEQLLNPRPSEADPEADPEEATAARVIDRFDEGEDGEGDFLVVGSIRKLASASLLDTDKRYCGKTTSRKAWNEDHWEQTLPGSSDEEISDEEGSGDEDSEGLGLEEYDEDDLGA
# B3: GST-Che-1-M (domain or fragment, UniProt Q9NY61 125-246, looked up)
# chain: AEEQECGDHRESKKSRSHSAKTPGFSVQSISDFEKFTKGMDDLGSSEEEEDEESGMEEGDDAEDSQGESEEDRAGDRNSEDDGVVMTFSSVKVSEEVEKGRAVKNQIALWDQLLEGRIKLQK
# B4: GST-Sirt1 (enzyme, UniProt Q96EB6 1-747, looked up)
# chain: MADEAALALQPGGSPSAAGADREAASSPAGEPLRKRPRRDGPGLERSPGEPGGAAPEREVPAAARGCPGAAAAALWREAEAEAAAAGGEQEAQATAAAGEGDNGPGLQGPSREPPLADNLYDEDDDDEGEEEEEAAAAAIGYRDNLLFGDEIITNGFHSCESDEEDRASHASSSDWTPRPRIGPYTFVQQHLMIGTDPRTILKDLLPETIPPPELDDMTLWQIVINILSEPPKRKKRKDINTIEDAVKLLQECKKIIVLTGAGVSVSCGIPDFRSRDGIYARLAVDFPDLPDPQAMFDIEYFRKDPRPFFKFAKEIYPGQFQPSLCHKFIALSDKEGKLLRNYTQNIDTLEQVAGIQRIIQCHGSFATASCLICKYKVDCEAVRGDIFNQVVPRCPRCPADEPLAIMKPEIVFFGENLPEQFHRAMKYDKDEVDLLIVIGSSLKVRPVALIPSSIPHEVPQILINREPLPHLHFDVELLGDCDVIINELCHRLGGEYAKLCCNPVKLSEITEKPPRTQKELAYLSELPPTPLHVSEDSSSPERTSPPDSSVIVTLLDQAAKSNDDLDVSESKGCMEEKPQEVQTSRNVESIAEQMENPDLKNVGSSTGEKNERTSVAGTVRKCWPNRVAKEQISRRLDGNQYLFLPPNRYIFHGAEVYSDSEDDVLSSSSCGSNSDSGTCQSPSLEEPMEDESEIEEFYNGLEDEPDVPERAGGAGFGTDGDDQEAINEAISVKQEVTDMNYPSNKS
# Tests used:
# Flag-NAT10 GE = target: T1, Flag-NAT10 GE (UniProt Q9H0A0 1-1025, G641E); experiment: pull-down
# T1 sequence (looked up): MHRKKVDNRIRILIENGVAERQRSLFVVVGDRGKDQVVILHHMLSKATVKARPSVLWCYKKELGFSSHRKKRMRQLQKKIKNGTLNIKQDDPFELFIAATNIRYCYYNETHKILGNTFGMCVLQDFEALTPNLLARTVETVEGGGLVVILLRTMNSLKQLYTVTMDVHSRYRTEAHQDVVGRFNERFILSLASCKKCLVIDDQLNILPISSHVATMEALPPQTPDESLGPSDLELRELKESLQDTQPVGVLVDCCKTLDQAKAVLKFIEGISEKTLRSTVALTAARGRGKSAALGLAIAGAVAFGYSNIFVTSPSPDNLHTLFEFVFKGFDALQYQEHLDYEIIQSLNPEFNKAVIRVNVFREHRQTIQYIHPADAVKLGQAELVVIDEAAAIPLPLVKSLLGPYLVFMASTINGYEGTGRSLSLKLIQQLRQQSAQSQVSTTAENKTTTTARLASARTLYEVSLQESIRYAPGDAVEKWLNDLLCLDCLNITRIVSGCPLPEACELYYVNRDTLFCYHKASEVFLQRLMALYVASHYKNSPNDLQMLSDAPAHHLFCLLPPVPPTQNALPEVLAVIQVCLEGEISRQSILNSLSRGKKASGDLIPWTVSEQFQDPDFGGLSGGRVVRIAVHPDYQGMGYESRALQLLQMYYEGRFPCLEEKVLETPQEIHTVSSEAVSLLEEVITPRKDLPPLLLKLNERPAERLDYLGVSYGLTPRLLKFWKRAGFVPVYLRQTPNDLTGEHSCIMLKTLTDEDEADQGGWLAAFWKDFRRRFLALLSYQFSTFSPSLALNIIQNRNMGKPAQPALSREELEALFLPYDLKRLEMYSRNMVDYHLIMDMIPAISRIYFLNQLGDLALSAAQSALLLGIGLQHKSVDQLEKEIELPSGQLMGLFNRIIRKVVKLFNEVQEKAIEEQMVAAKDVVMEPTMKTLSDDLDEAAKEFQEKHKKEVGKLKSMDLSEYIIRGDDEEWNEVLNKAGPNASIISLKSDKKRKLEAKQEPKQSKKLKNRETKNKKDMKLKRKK
# purified Flag-NAT10 = target: T2, purified Flag-NAT10 (UniProt Q9H0A0 1-1025); experiment: pull-down
# T2 sequence (looked up): T1 sequence (looked up) with E641G
Binder,binding result (Flag-NAT10 GE),binding result (purified Flag-NAT10)
B1,binds,binds
B2,,binds
B3,,binds
B4,,binds
